Results on one molecule are retold here after paper PMC12331092 (2025).

Square brackets hold non-standard residues; d marks the D form. Ends that are not written are not given here. pT = C[C@@H](OP(=O)(O)O)[C@H](N)C(=O)O; pS = N[C@@H](COP(=O)(O)O)C(=O)O

The target of test [1] is T1, Rattus norvegicus wild-type β-arrestin2 (Rattus norvegicus, UniProt P29067 1-410). Description: ITC; site I (KD1).
The target in test [2] is T1, Rattus norvegicus wild-type β-arrestin2. Description: ITC; site II (KD2).

T1 sequence (P29067 whole entry): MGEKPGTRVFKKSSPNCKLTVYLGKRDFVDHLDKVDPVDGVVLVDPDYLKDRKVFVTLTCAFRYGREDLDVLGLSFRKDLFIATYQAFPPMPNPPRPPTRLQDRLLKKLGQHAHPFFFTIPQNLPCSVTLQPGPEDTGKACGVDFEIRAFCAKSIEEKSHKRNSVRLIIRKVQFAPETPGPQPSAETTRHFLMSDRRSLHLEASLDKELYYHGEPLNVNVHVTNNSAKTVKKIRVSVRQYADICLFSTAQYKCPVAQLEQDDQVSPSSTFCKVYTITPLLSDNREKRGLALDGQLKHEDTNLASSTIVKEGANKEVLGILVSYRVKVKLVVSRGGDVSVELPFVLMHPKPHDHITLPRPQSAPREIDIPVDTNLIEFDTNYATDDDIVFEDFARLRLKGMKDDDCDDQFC

B1: C7pp2, phosphopeptide from the carboxyl terminus of CXCR7 (residues 346-359) (peptide)
peptide: ASRV[pS]E[pT]EY[pS]ALEQ
For the molecule B1, the Kd amounted to 79.9 nM in test [1] and 3320 nM in test [2].

The term Kd denotes the free concentration of one partner at which half of the binding sites on the other are occupied at equilibrium, for simple one-to-one binding.
